Experimental data taken from patent publication US20060241040A1 (published 2006).

B1: C-terminally 6×His tagged human MD-2, baculovirus-derived (Sf9 insect cells), purified (ligand)
chain: QKQYWVCNSSDASISYTYCDKMQYPISINVNPCIELKGSKGLLHIFYIPRRDLKQLYFNLYITVNTMNLPKRKEVICRGSDDDYSFCRALKGETVNTTISFSFKGIKFSKGKYKCVVEAISGSPEEMLFCLEFVILHQPNSNHHHHHH
notes: Purified from supernatants (secreted); also called MD-2^6xHis; MD-2^6×His
B2: endogenous soluble MD-2 in serum of healthy human donors (ligand)
chain: QKQYWVCNSSDASISYTYCDKMQYPISINVNPCIELKGSKGLLHIFYIPRRDLKQLYFNLYITVNTMNLPKRKEVICRGSDDDYSFCRALKGETVNTTISFSFKGIKFSKGKYKCVVEAISGSPEEMLFCLEFVILHQPNSN
notes: Natural protein in serum; also called sMD-2; serum MD-2

Tests used:
[1] = target: T1, TLR4:Fc fusion protein (entire extracellular domain of hTLR4, amino acids 1-632, fused to the Fc portion of … (human; mouse, UniProt P01863 98-330 = IgG part); assay: indirect ELISA-like assay: TLR4:Fc captured on protein A coated plate, MD-2 titrated 0.1 to 50 nM, Ni-HRP detection, absorbance at 450 nm; without LPS (dotted line)
T1 construct: domain: C-terminal 233 amino acid Fc portion; Secreted by retrovirally transduced HEK293 cells; also called T4:Fc; TLR4:Fc chimera
Method: FIG. 4A is a line graph of MD-2^6xHis binding to TLR-4:Fc. MD-2^6xHis was added in titrated amounts (0.1 to 50 nM). To control for non-specific binding to protein A, 50 nM of MD-2 was plated in the absence of TLR4:Fc (“50”). […] The apparent […] of this interaction is of ˜12 nM.
To determine the Kd for the interaction between TLR4 and MD-2, an indirect ELISA-like binding assay was developed. Fifty μl of purified TLR4:Fc at 20 μg/ml (FIG. 4A) or at the concentration indicated in FIG. 4B was plated on protein A coated, high-protein binding 96 well plates. […] MD-2 bound to TLR4:Fc was detected using Ni-HRP (1:2,000 in PBS-Tween, Sigma), and developed by incubation with its chromogenic substrate per the manufacturer's instructions (DAKO, Carpinteria, Calif.). Each condition was measured in triplicate; the absorbance of each sample was measured at 450 nm; the results are presented as the average reading±SD.
In FIG. 4A, saturating amounts of TLR4:Fc were adsorbed to protein A coated 96 well plates and purified soluble MD-2 was added in titrated amounts. The 6×His tag present at the C terminus of MD-2 was detected using a Ni based HRP labeled reagent, and the presence of MD-2 bound to TLR4 was detected using a chromogenic substrate. […]

[2] = target: T1, TLR4:Fc fusion protein (entire …); assay: depletion of human serum with TLR4:Fc loaded protein A beads, read out on NF-κB reporter cells (FIG. 6A)
Method: Human serum was collected from healthy volunteers using standard serum Vacutainers™ blood collection tubes (Becton Dickinson) and clotted for 30 minutes at room temperature. The blood clot was removed by centrifugation and serum stored at −20° C. in 1 ml aliquots until use. MD-2 was removed from serum using immunoaffinity techniques using chimeric antibody-like proteins bound to protein A Sepharose™ beads (PAS). Human antibodies can potentially compete with the TLR chimeras for binding sites on protein A beads. Therefore, they were removed from serum by two preclearing steps, of two hours each, with 1/10 the volume of packed PAS beads.
HEK293 cells that had been transduced with retrovirus encoding the TLR:Fc fusion proteins were grown in protein free medium and served as the source of conditioned medium. TLR4:Fc and TLR2:Fc were captured from 50-100 ml of medium using 40 μl of packed PAS/ml for one hour at 4° C. Coated beads were then added to sera that had been precleared with PAS alone for 1 hour at 4° C. Human serum was diluted in DMEM to a final concentration of 20% v/v before use on reporter cells. Before each conjugation/treatment step, the beads were washed with 20% ethanol in PBS followed by equilibration in DMEM. Reconstitution with MD-2 was performed by adding the indicated amounts of recombinant purified MD-2 to the TLR4:Fc depleted stimulating media. […]

T1 sequence (P01863 other isoform, or with tags, fused parts or gaps limits assumed): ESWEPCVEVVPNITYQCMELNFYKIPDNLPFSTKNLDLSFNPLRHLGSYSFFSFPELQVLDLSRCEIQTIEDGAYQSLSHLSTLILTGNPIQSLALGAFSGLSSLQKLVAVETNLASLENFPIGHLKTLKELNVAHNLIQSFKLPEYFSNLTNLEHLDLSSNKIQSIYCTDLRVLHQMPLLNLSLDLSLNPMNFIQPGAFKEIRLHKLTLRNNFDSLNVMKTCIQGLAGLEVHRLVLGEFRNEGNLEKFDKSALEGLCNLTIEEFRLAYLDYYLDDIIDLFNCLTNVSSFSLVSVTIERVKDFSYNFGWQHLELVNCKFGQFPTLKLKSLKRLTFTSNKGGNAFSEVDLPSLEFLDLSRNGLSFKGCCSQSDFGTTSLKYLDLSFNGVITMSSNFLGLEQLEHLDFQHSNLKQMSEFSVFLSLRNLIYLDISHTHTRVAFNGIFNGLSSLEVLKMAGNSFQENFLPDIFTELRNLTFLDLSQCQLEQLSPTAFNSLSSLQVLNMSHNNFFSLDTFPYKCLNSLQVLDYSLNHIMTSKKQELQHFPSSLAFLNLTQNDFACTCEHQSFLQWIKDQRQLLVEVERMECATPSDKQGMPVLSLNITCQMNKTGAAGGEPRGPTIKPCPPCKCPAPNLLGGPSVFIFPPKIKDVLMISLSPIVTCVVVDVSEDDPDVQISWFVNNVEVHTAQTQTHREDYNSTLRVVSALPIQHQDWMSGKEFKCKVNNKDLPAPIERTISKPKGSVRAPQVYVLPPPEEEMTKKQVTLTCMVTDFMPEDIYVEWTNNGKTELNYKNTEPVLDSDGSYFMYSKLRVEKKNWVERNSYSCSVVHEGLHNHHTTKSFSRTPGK

Binder	Kd [1]	binding result [2]
B1	~12 nM	
B2		binds
